# From the Immune Epitope Database (IEDB)
# Columns and labels:
# Settings in all cases: source organism: Vibrio cholerae
# HLA-C*07:02 = test: IEDB peptide-MHC binding, purified MHC/direct/fluorescence; filed as Kd, often an IC50 or EC50 that approximates it; ≥ and ≤ were set here for values at or beyond the usual limits of such assays
# HLA-A*02:03 = test: IEDB peptide-MHC binding, purified MHC/competitive/fluorescence; filed as Kd, often an IC50 or EC50 that approximates it; ≥ and ≤ were set here for values at or beyond the usual limits of such assays
# HLA-A*26:01 = test: as above
# HLA-A*02:19 = test: as above
# HLA-A*68:02 = test: as above
# HLA-A*02:01 = test: as above
# HLA-B*18:01 = test: as above
# HLA-B*51:01 = test: as above
# HLA-A*23:01 = test: as above
# HLA-A*66:01 = test: as above
# HLA-B*15:17 = test: as above
# HLA-B*07:02 = test: as above
# HLA-B*08:01 = test: as above
# HLA-B*53:01 = test: as above
# HLA-B*27:05 = test: as above
# HLA-B*40:01 = test: as above
# HLA-A*30:02 = test: as above
# HLA-B*44:02 = test: as above
# HLA-B*15:01 = test: as above
# HLA-B*46:01 = test: as above
# HLA-B*58:01 = test: as above
# HLA-A*24:03 = test: as above
# HLA-A*29:02 = test: as above
# HLA-A*02:12 = test: as above
# HLA-B*57:01 = test: as above
# HLA-A*01:01 = test: as above
# HLA-A*03:01 = test: as above
# HLA-A*11:01 = test: as above
# HLA-B*14:02 = test: as above
sequence,measurement,setting,value
TRAPAPFPL,Kd,HLA-C*07:02,0.045 µM
same,Kd,HLA-A*02:03,≥ 20 µM
same,Kd,HLA-A*26:01,≥ 20 µM
same,Kd,HLA-A*02:19,≥ 20 µM
same,Kd,HLA-A*68:02,0.13 µM
same,Kd,HLA-A*02:01,≥ 20 µM
same,Kd,HLA-B*18:01,≥ 20 µM
same,Kd,HLA-B*51:01,≥ 20 µM
same,Kd,HLA-A*23:01,3.5 µM
same,Kd,HLA-A*66:01,≥ 5 µM
same,Kd,HLA-B*15:17,≥ 20 µM
same,Kd,HLA-B*07:02,≥ 5 µM
same,Kd,HLA-B*08:01,≥ 5 µM
same,Kd,HLA-B*53:01,≥ 5 µM
same,Kd,HLA-B*27:05,0.0123 µM
same,Kd,HLA-B*40:01,≥ 5 µM
same,Kd,HLA-A*30:02,≥ 5 µM
same,Kd,HLA-B*44:02,≥ 5 µM
same,Kd,HLA-B*15:01,≥ 20 µM
same,Kd,HLA-B*46:01,≥ 20 µM
same,Kd,HLA-B*58:01,≥ 5 µM
same,Kd,HLA-A*24:03,≥ 20 µM
same,Kd,HLA-A*29:02,≥ 20 µM
same,Kd,HLA-A*02:12,≥ 20 µM
same,Kd,HLA-B*57:01,≥ 20 µM
same,Kd,HLA-A*01:01,≥ 5 µM
same,Kd,HLA-A*03:01,≥ 20 µM
same,Kd,HLA-A*11:01,≥ 5 µM
same,Kd,HLA-B*14:02,0.565 µM
